Here are results for 11 molecules from patent US20230257470A1 (published 2023).

Experiment [1] addresses T1, human FcγRIIb (human, UniProt P31994 43-217, limits assumed).
T1 construct: Whole entry (AAI46679.1); also called FcγIIB; FcgRIIb
T1 sequence: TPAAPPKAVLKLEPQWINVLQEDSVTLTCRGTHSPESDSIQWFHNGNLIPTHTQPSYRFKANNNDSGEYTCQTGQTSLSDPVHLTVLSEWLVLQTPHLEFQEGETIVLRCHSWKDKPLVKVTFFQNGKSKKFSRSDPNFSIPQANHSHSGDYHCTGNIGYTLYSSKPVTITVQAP
As to the kind of experiment: SPR (Biacore), antibody captured on Protein A chip, FcγR as analyte, 25 C, method of Example 14.

Experiment [2] deals with T2, mouse FcγRIII (mouse, UniProt P08508 31-215).
T2 construct: Bought protein; construct not described; also called mFcgRIII
T2 sequence (looked up): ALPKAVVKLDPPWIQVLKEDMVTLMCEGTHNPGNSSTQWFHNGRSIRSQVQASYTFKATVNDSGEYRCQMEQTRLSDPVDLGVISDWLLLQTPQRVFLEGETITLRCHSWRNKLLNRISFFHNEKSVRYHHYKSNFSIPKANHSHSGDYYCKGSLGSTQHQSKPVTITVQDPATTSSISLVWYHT
Nature of the experiment: SPR, antibody captured by Protein L, mouse FcγR injected, pH 7.4.

For experiment [3], the target named is T3, mouse FcγRI (mouse, UniProt P26151 25-297).
T3 construct: Bought protein; construct not described; also called mFcgRI
T3 sequence (looked up): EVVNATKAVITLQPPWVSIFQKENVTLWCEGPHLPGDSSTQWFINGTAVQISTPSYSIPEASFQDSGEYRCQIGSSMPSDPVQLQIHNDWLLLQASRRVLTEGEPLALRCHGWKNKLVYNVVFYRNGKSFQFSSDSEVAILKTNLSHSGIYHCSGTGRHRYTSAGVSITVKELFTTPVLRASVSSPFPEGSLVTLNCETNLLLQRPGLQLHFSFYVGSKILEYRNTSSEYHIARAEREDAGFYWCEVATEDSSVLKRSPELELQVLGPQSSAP
The description is as above.

Experiment [4] concerns the target T4, mouse FcγRIIb (mouse, UniProt P08101 40-217, limits assumed).
T4 construct: Bought protein; construct not described; also called mFcgRIIb
T4 sequence (looked up): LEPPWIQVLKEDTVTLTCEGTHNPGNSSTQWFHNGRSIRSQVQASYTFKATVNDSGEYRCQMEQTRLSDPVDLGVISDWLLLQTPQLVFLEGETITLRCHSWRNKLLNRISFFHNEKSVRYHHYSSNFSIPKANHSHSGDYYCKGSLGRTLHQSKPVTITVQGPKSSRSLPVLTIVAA
Described as above.

In experiment [5] the target is T5, human FcγRIIa type R (human, UniProt P12318 36-217).
T5 construct: also called FcγRIIaR; FcγRIIa(R)
T5 chain: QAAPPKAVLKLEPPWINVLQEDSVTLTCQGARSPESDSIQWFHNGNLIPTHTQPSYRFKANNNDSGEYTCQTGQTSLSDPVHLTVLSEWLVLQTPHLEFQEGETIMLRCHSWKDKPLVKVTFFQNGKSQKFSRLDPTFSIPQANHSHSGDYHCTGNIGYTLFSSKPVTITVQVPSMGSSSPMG
Nature of the experiment: SPR (Biacore), antibody captured on Protein A chip, FcγR as analyte, 25 C, method of Example 14. Background: Surface plasmon resonance follows binding to a sensor surface in real time, without labels.

The target of experiment [6] is T6, human FcγRIIb (human, UniProt P31994 43-217, limits assumed).
T6 construct: also called FcgRIIb; FcγIIB
T6 sequence: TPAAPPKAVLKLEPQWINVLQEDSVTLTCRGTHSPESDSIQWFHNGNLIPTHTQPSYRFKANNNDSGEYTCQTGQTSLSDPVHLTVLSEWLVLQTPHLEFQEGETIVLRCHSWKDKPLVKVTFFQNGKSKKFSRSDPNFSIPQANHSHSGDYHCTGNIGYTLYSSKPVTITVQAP
Nature of the experiment: SPR, antibody captured, FcγR as analyte, capture-corrected binding amount.

Experiment [7] has as its target T7, human FcγRIIIa(F) (human, UniProt P08637 17-208, limits assumed).
T7 construct: the assay used allotype F; also called FcgRIIIaF; FcγRIIIa allotype F158
Described as above.

The target of experiment [8] is T8, human FcγRIIb (human, UniProt P31994 43-217, limits assumed).
T8 construct: Soluble analyte in SPR; also called FcgRIIb; FcγIIB
T8 sequence: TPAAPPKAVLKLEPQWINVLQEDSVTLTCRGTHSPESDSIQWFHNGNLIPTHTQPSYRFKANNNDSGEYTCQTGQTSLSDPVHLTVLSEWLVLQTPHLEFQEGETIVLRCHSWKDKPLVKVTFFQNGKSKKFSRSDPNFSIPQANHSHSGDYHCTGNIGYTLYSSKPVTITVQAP
As to the kind of experiment: SPR, captured antibody, FcγR as analyte.

T7 sequence (P08637 other isoform, or with tags, fused parts or gaps limits assumed): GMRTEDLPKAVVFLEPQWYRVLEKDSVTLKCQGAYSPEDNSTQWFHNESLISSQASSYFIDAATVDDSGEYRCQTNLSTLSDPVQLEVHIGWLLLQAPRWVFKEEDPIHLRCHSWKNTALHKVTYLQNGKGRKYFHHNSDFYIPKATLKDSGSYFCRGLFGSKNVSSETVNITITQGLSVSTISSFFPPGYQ

B1: IL6R-2B261/IL6R-L (antibody, human IgG1, name in EU numbering)
heavy: QVQLQESGPGLVKPSETLSLTCAVSGHSISHDHAWSWVRQPPGEGLEWIGFISYSGITNYNPSLQGRVTISRDNSKNTLYLQMNSLRAEDTAVYYCARSLARTTAMDYWGEGTLVTVSSASTKGPSVFPLAPSSKSTSGGTAALGCLVKDYFPEPVTVSWNSGALTSGVHTFPAVLQSSGLYSLSSVVTVPSSSLGTQTYICNVNHKPSNTKVDKKVEPKSCDKTHTCPPCPAPDLLGGDSVFLFPPKPKDTLMISRTPEVTCVVVDVSHEDPEVKFNWYVDGVEVHNAKTKPREEQDNSTYRVVSVLTVLHQDWLNGKEYKCKVSNKALPAPIEKTISKAKGQPREPQVYTLPPSRDELTKNQVSLTCLVKGFYPSDIAVEWESNGQPENNYKTTPPVLDSDGSFFLYSKLTVDKSRWQQGNVFSCSVMHEALHNHYTQESLSLSP
light: DIQMTQSPSSLSASVGDRVTITCRASQDISSYLNWYQQKPGKAPKLLIYYTSRLHSGVPSRFSGSGSGTDFTFTISSLQPEDIATYYCQQGNTLPYTFGQGTKVEIK
notes: Alterations introduced into IL6R-B3 (EU numbering)
One may read the Kd as the constant that tells how readily two partners part at equilibrium. In experiment [1], B1 gave a Kd of 10 µM.

B2: VH3/L(WT)-IgG1-F821 (antibody)
heavy: QVQLQESGPGLVKPSETLSLTCAVSGHSISHDHAWSWVRQPPGEGLEWIGFISYSGITNYNPSLQGRVTISRDNSKNTLYLQMNSLRAEDTAVYYCARSLARTTAMDYWGEGTLVTVSSASTKGPSVFPLAPSSKSTSGGTAALGCLVKDYFPEPVTVSWNSGALTSGVHTFPAVLQSSGLYSLSSVVTVPSSSLGTQTYICNVNHKPSNTKVDKKVEPKSCDKTHTCPPCPAPELRGGPKVFLFPPKPKDTLYISRTPEVTCVVVDVSHEDPEVKFNWYVDGVEVHNAKTKPREEQYNSTYRVVSVLTVLHQDWLNGKEYKCKVSNKALPAPIEKTISKAKGQPREPQVYTLPPSRDELTKNQVSLTCLVKGFYPSDIAVEWESNGQPENNYKTTPPVLDSDGSFFLYSKLTVDKSRWQQGNVFSCSVMHEALHYHYTQKSLSLSP
light: not shown
notes: L235R/S239K variant of VH3-IgG1-F11 with L(WT)-CK; also called VH3-IgG1-F821; copies: 2 + 2
As for B2, the binding result in experiment [2], in experiment [3] and in experiment [4] was “no binding” each time.

B3: VH3/L(WT)-IgG1-F939 (antibody)
heavy: QVQLQESGPGLVKPSETLSLTCAVSGHSISHDHAWSWVRQPPGEGLEWIGFISYSGITNYNPSLQGRVTISRDNSKNTLYLQMNSLRAEDTAVYYCARSLARTTAMDYWGEGTLVTVSSASTKGPSVFPLAPSSKSTSGGTAALGCLVKDYFPEPVTVSWNSGALTSGVHTFPAVLQSSGLYSLSSVVTVPSSSLGTQTYICNVNHKPSNTKVDKKVEPKSCDKTHTCPPCPAPELRGGPKVFLFPPKPKDTLYISRTPEVTCVVVDVSHEDPEVKFNWYVDGVEVHNAKTKPREEQYNSTYRVVSVLTVLHQDWLNGKEYKCKVSNKALPAPIEKTISKAKGQPREPQVYTLPPSRDELTKNQVSLTCLVKGFYPSDIAVEWESNGQPENNYKTTPPVLDSDGSFFLYSKLTVDKSRWQQGNVFSCSVMHEALHYHVTQKSLSLSP
light: not shown
notes: L235R/S239K variant of VH3-IgG1-F890 with L(WT)-CK; also called VH3-IgG1-F939; copies: 2 + 2
As for B3, the binding result in experiment [2], in experiment [3] and in experiment [4] was “no binding” in each case.

B4: IL6R-BF648/IL6R-L (antibody, human IgG1, name in EU numbering)
heavy: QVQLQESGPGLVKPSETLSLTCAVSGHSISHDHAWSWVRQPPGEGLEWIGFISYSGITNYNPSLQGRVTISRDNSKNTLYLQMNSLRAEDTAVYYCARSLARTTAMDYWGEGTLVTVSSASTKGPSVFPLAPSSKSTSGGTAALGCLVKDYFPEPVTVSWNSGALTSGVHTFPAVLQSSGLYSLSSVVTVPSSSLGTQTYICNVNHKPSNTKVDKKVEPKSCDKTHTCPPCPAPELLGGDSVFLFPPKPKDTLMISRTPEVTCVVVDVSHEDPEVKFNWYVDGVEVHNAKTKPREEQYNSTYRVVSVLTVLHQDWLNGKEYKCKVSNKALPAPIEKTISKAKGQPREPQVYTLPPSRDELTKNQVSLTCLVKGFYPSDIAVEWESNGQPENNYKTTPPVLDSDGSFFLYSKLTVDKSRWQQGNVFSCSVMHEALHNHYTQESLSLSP
light: DIQMTQSPSSLSASVGDRVTITCRASQDISSYLNWYQQKPGKAPKLLIYYTSRLHSGVPSRFSGSGSGTDFTFTISSLQPEDIATYYCQQGNTLPYTFGQGTKVEIK
notes: Alteration introduced into IL6R-B3; positions in EU numbering
For the molecule B4, binding in experiment [1] was characterised by a dissociation constant (Kd) of 12 µM.

B5: IL6R-G1d/IL6R-L (antibody, human IgG1)
heavy: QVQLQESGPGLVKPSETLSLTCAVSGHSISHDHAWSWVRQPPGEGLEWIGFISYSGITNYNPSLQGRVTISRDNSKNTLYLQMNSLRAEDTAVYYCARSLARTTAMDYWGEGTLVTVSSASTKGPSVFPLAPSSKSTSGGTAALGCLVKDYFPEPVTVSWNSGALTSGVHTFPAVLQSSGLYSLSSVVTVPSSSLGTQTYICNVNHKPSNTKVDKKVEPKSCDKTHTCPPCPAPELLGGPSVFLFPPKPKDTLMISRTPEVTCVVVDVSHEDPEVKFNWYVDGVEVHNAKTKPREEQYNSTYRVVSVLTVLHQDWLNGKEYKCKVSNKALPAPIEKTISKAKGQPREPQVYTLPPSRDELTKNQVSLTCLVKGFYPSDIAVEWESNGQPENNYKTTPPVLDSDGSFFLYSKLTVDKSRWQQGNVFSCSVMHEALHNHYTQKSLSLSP
light: DIQMTQSPSSLSASVGDRVTITCRASQDISSYLNWYQQKPGKAPKLLIYYTSRLHSGVPSRFSGSGSGTDFTFTISSLQPEDIATYYCQQGNTLPYTFGQGTKVEIK
notes: Anti-human IL-6 receptor IgG1, G1d constant region; also called IgG1
B5: the Kd in experiment [5] was 10 µM; in experiment [1], 26 µM.

B6: VH3/L(WT)-IgG1-F1009 (antibody)
heavy: QVQLQESGPGLVKPSETLSLTCAVSGHSISHDHAWSWVRQPPGEGLEWIGFISYSGITNYNPSLQGRVTISRDNSKNTLYLQMNSLRAEDTAVYYCARSLARTTAMDYWGEGTLVTVSSASTKGPSVFPLAPSSKSTSGGTAALGCLVKDYFPEPVTVSWNSGALTSGVHTFPAVLQSSGLYSLSSVVTVPSSSLGTQTYICNVNHKPSNTKVDKKVEPKSCDKTHTCPPCPAPELRGGPKVFLFPPKPKDVLYISRTPEVTCVVVDVSHEDPEVKFNWYVDGVEVHNAKTKPREEQYNSTYRVVSVLQPLHADWLNGKEYKCKVSNKALPAPIEKTISKAKGQPREPQVYTLPPSRDELTKNQVSLTCLVKGFYPSDIAVEWESNGQPENNYKTTPPVLDSDGSFFLYSKLTVDKSRWQQGNVFSCSVMHEALHYHVTQKSLSLSP
light: not shown
notes: L235R/S239K variant of VH3-IgG1-F947 with L(WT)-CK; also called VH3-IgG1-F1009; copies: 2 + 2
Turning to B6, the binding result in experiment [2], in experiment [3] and in experiment [4] was “no binding” in each case.

B7: IL6R-BP146/IL6R-L (antibody, human IgG1, name in EU numbering)
heavy: QVQLQESGPGLVKPSETLSLTCAVSGHSISHDHAWSWVRQPPGEGLEWIGFISYSGITNYNPSLQGRVTISRDNSKNTLYLQMNSLRAEDTAVYYCARSLARTTAMDYWGEGTLVTVSSASTKGPSVFPLAPSSKSTSGGTAALGCLVKDYFPEPVTVSWNSGALTSGVHTFPAVLQSSGLYSLSSVVTVPSSSLGTQTYICNVNHKPSNTKVDKKVEPKSCDKTHTCPPCPAPEYLGDDSVFLFPPKPKDTLMISRTPEVTCVVVDVSHEDPEVKFNWYVDGVEVHNAKTKPREEQYNSTYRVVSVLTVLHQDWLNGKEYKCKVSNAALPAPIEKTISKAKGQPREPQVYTLPPSRDELTKNQVSLTCLVKGFYPSDIAVEWESNGQPENNYKTTPPVLDSDGSFFLYSKLTVDKSRWQQGNVFSCSVMHEALHNHYTQESLSLSP
light: DIQMTQSPSSLSASVGDRVTITCRASQDISSYLNWYQQKPGKAPKLLIYYTSRLHSGVPSRFSGSGSGTDFTFTISSLQPEDIATYYCQQGNTLPYTFGQGTKVEIK
notes: as for B1
With B7, binding in experiment [5] was characterised by a dissociation constant (Kd) of 21 µM.

B8: GpH7-B3 L328R/GpL16-k0 (antibody, human IgG1)
heavy: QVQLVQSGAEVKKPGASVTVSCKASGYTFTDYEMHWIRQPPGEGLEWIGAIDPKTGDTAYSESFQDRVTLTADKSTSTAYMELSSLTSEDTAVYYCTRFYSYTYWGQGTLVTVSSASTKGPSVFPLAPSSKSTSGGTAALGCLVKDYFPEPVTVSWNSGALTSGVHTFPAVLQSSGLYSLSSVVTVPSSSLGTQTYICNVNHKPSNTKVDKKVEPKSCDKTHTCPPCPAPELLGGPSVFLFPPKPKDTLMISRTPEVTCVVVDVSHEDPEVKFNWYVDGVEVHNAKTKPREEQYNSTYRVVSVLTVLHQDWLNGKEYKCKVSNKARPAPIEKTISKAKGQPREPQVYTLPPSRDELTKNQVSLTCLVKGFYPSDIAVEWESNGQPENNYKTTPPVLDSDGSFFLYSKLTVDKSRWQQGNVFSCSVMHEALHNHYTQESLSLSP
light: DIVMTQSPLSLPVTPGEPASISCQASESLVHSNRNTYLHWYLQKPGQSPQLLIYKVSNRFSGVPDRFSGSGSGTDFTLKISRVEAEDVGVYYCSQNTHVPPTFGQGTKVEIE
notes: Anti-glypican-3 human IgG1 with B3 constant region (G1d with K439E); also called B3 variant; copies: 2 + 2
Regarding B8, the relative binding activity in experiment [6] is 3 % of GpH7-B3/GpL16-k0; in experiment [7], 1 % of GpH7-B3/GpL16-k0.

B9: GpH7-B3 P329Q/GpL16-k0 (antibody, human IgG1)
heavy: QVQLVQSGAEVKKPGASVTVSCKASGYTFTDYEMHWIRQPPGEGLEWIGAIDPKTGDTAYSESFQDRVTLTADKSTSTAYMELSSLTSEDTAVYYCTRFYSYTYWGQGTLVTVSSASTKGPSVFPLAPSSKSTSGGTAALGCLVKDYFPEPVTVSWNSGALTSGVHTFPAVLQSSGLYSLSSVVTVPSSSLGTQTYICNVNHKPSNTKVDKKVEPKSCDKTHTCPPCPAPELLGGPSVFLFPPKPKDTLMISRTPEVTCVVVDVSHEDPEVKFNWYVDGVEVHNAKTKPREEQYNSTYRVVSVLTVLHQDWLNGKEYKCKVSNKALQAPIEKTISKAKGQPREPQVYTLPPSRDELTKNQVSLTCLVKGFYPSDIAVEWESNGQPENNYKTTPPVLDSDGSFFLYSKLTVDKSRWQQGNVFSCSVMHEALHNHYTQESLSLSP
light: DIVMTQSPLSLPVTPGEPASISCQASESLVHSNRNTYLHWYLQKPGQSPQLLIYKVSNRFSGVPDRFSGSGSGTDFTLKISRVEAEDVGVYYCSQNTHVPPTFGQGTKVEIE
notes: as for B8
Take B9: the relative binding activity in experiment [6] is 2 % of GpH7-B3/GpL16-k0; in experiment [7], 1 % of GpH7-B3/GpL16-k0.

B10: GpH7-B3 variant G237R/GpL16-k0 (antibody, human IgG1)
heavy: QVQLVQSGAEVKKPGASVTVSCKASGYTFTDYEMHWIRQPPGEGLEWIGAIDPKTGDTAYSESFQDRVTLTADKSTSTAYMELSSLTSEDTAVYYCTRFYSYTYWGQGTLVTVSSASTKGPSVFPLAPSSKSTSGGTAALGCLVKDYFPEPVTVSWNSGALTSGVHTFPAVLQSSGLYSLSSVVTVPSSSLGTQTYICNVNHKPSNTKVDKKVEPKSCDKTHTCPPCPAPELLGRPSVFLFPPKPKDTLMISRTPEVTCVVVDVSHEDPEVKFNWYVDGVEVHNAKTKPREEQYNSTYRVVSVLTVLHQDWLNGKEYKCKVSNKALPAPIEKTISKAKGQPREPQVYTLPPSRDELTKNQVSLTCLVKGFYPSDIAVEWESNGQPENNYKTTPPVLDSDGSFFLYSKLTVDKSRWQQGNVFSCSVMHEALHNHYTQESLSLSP
light: DIVMTQSPLSLPVTPGEPASISCQASESLVHSNRNTYLHWYLQKPGQSPQLLIYKVSNRFSGVPDRFSGSGSGTDFTLKISRVEAEDVGVYYCSQNTHVPPTFGQGTKVEIE
notes: copies: 2 + 2
For B10, in experiment [8], the relative binding activity is 1 % of GpH7-B3/GpL16-k0.

B11: GpH7-B3 variant D265M/GpL16-k0 (antibody, human IgG1)
heavy: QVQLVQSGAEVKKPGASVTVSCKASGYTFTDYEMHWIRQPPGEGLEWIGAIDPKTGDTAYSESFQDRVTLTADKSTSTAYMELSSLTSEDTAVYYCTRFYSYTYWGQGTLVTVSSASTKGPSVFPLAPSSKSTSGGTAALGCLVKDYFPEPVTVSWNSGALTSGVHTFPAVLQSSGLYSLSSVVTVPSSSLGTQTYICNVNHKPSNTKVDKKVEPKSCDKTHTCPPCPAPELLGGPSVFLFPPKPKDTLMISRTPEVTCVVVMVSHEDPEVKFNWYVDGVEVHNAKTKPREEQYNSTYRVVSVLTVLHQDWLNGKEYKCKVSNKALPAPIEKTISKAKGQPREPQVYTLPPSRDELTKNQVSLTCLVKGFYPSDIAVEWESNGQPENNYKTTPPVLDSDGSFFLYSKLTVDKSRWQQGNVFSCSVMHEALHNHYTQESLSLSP
light: DIVMTQSPLSLPVTPGEPASISCQASESLVHSNRNTYLHWYLQKPGQSPQLLIYKVSNRFSGVPDRFSGSGSGTDFTLKISRVEAEDVGVYYCSQNTHVPPTFGQGTKVEIE
notes: copies: 2 + 2
In the case of B11, the relative binding activity in experiment [8] is 2 % of GpH7-B3/GpL16-k0.
